We go through one molecule from article PMC9131899 (Blood Advances, 2022).

The assay addresses T1, high molecular weight kininogen (HK), purified protein used in ELISA (human, UniProt P01042 19-644).
T1 sequence (looked up): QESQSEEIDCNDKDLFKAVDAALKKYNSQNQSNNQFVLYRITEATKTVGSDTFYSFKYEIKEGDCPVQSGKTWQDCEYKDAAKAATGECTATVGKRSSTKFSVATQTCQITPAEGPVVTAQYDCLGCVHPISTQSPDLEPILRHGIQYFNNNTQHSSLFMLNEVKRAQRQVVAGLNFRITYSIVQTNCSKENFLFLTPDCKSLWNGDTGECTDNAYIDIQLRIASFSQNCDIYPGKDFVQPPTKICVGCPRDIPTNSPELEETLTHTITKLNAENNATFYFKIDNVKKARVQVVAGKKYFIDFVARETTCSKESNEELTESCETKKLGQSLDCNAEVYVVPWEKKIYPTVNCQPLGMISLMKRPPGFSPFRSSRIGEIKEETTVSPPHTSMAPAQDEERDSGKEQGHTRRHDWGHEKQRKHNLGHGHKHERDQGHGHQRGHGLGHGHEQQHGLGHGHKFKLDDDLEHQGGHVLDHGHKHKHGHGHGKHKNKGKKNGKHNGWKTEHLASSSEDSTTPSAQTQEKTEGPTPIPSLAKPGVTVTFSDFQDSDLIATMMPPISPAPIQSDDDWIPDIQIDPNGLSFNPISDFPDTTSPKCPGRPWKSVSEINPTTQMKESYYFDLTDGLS
In words: ELISA.

B1: prekallikrein (PK), purified protein used in ELISA (natural protein)
chain: not shown
In the case of B1, the binding result is listed as “binds”.
